Assay results as given in patent US20250145711A1 (Janssen / Centocor, published 2025).
Positions count from the first letter of the chain named.

B1: CD3B2035 (scFv)
scFv: QVQLVQSGAEVKKPGSSVKVSCKASGYTFTRSTMHWVKQAPGQGLEWMGYINPSSAYTNYNQKFQGRVTLTADKSTSTAYMELSSLRSEDTAVYYCASPQVHYDYNGFPYWGQGTLVTVSSGGSEGKSSGSGSESKSTGGSEIVLTQSPATLSASPGERVTLSCSASSSVSYMNWYQQKPGQAPRRWIYDSSKLASGVPARFSGSGSGRDYTLTISSLEPEDFAVYYCQQWSRNPPTFGGGTKVEIK
B2: CD3B2042 (scFv)
scFv: B1 scFv with K38R, M48I, Q182T, A183S, W187L
B3: CD3B2029 (scFv)
scFv: B1 scFv with M48I, A183S
B4: CD3B2039 (scFv)
scFv: B1 scFv with N61A, A183S
B5: CD3B2070 (scFv)
scFv: B1 scFv with K38R, Q182T, A183S, W187L
B6: CD3B2062 (scFv)
scFv: B1 scFv with M48I, N61A, Q182T, A183S, W187L
B7: CD3B2074 (scFv)
scFv: B1 scFv with K38R, M48I, N61A, Q182T, A183S
B8: CD3B2033 (scFv)
scFv: B1 scFv with Q182T, W187L
B9: CD3B2059 (scFv)
scFv: B1 scFv with M48I, N61A, A183S, W187L
B10: CD3B2060 (scFv)
scFv: B1 scFv with M48I, N61A, W187L
B11: CD3B2037 (scFv)
scFv: B1 scFv with N61A, Q182T, A183S, W187L
B12: CD3B2076 (scFv)
scFv: B1 scFv with K38R, M48I, N61A, W187L
B13: CD3B2038 (scFv)
scFv: B1 scFv with N61A, Q182T, W187L
B14: CD3B2068 (scFv)
scFv: B1 scFv with K38R, W187L
B15: CD3B2084 (scFv)
scFv: B1 scFv with K38R, N61A, W187L
B16: CD3B2041 (scFv)
scFv: B1 scFv with K38R, M48I, Q182T
B17: CD3B2067 (scFv)
scFv: B1 scFv with K38R, A183S, W187L
B18: CD3B2066 (scFv)
scFv: B1 scFv with K38R, Q182T, A183S
B19: CD3B2061 (scFv)
scFv: B1 scFv with M48I, N61A, Q182T
B20: CD3B2034 (scFv)
scFv: B1 scFv with A183S
B21: CD3B2031 (scFv)
scFv: B1 scFv with Q182T
B22: CD3B2075 (scFv)
scFv: B1 scFv with K38R, M48I, N61A, A183S, W187L
B23: CD3B2083 (scFv)
scFv: B1 scFv with K38R, N61A, A183S, W187L

Key:
[1] = target: T1, TRCW5 antigen (CD3δε-Fc-Avi) (biotinylated (site not stated)); test: ELISA after heat
T1 construct: also called recombinant CD3
T1 sequence (chain, as listed by the source mutant limits assumed): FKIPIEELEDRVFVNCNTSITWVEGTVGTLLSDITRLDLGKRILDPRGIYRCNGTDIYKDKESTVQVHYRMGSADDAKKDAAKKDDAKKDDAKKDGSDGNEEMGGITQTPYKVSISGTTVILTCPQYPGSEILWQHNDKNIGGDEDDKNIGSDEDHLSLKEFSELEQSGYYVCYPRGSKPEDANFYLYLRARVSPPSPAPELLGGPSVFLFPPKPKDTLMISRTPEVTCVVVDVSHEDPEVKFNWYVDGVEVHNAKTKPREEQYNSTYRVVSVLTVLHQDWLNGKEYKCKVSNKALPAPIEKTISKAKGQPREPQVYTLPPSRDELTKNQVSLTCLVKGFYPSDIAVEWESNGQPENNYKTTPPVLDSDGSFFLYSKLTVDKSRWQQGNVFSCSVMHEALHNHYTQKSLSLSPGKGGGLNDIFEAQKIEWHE

[2] = target: T2, CD3 on primary human pan T cells (human, UniProt P07766 23-207); test: flow cytometry, pan T-cells
T2 construct: on cells it stands in the TCR/CD3 complex; also called Pan T-cells (CD3-positive); endogenous CD3
T2 sequence (P07766 23-207 limits assumed): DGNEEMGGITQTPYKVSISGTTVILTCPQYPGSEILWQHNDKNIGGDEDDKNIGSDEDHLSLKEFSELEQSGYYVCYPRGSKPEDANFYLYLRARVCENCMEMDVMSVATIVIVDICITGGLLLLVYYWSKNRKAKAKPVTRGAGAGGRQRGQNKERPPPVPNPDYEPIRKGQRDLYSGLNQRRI
Description: ELISA assays for binding to recombinant CD3 (TRCW5, SEQ ID NO: 39) were performed as above. Cell binding was performed using primary human T cell and Jurkat cells by flow cytometry. Briefly, E. coli expressed anti CD3 ScFv supernatants, either at room temperature, or 55° C., 60° C. or 65° C. heat treated samples.
Pan T-cells (CD3-positive) and Jurkat-CD3-negative cells were prepared by staining Jurkat-CD3-negative cells with CFSE while keeping pan T-cells unstained. Jurkat-CD3-negative cell suspensions were resuspended at 20 million cells per each 50 mL conical tube. Cells were harvested by centrifugation at 400×g for 5 minutes and resuspended in DPBS followed by washing 2× in DPBS. Cells were stained with 1:25,000 dilution for a final dye concentration of 0.02 uM CFSE (2 uL of staining solution to 50 mL of cell suspension). Cells were incubated for 10 minutes at room temperature and centrifuged for 5 minutes at 400×g. After removal of supernatant, 3 mL of HI-FBS were added to the cell pellet, mixed and centrifuged for 5 min at 400×g. Supernatant was removed and cells were resuspended in BD stain buffer at 2×10\hat{ }6 cells/mL and incubated on ice or 4 C protected from light. Human pan T cells were thawed at 37 C and transferred gently into a conical tube containing 15 mL of warm or RT culture media (RPMI+10% FBS). […] Cells were harvested by centrifugation at 400×g for 5 min and resuspended in culture media (RPMI+10% HI-FBS). Pan T-cells (without staining) were prepared at 2×10\hat{ }6 cells/mL in flow staining buffer. Equal volumes of CFSE stained Jurkat-CD3-negative cells and unstained T-cells (CD3-positive) cells were mixed and plated 50 uL/well into assay plates. 50 uL/well neat bacterial supernatant samples and control sample (CD3W36 ScFv) were added to each well and plates were incubated 1 hr at 4 C or. Cells were harvested by centrifugation at 400×g for 4 min and 150 uL staining buffer were added to all wells, followed by centrifugation at 400×g for 4 min to pellet cells. To each well, 150 uL staining buffer were added followed by centrifugation at 400×g for 4 minutes to pellet cells.

Binder	% Retained 55° C. [1]	% Retained 60° C. [1]	% Retained 65° C. [1]	% Binding retained on T-cells, 55° C. [2]	% Binding retained on T-cells, 60° C. [2]	% Binding retained on T-cells, 65° C. [2]	% Binding retained on T-cells, RT [2]
B1	110%	112%	47%	1.06 fraction	1.14 fraction	0.455 fraction	1 fraction
B2	96%	83%	2%	0.993 fraction	0.935 fraction	0.0842 fraction	1 fraction
B3	100%	97%	29%	1.06 fraction	1.08 fraction	0.329 fraction	1 fraction
B4	111%	103%	44%	1.3 fraction	1 fraction	0.609 fraction	1 fraction
B5	107%	82%	6%				
B6	110%	102%	14%				
B7	104%	101%	6%				
B8	100%	84%	11%	1.07 fraction	1 fraction	0.295 fraction	1 fraction
B9	112%	98%	13%				
B10	107%	100%	21%				
B11	102%	103%	23%	1.07 fraction	0.986 fraction	0.061 fraction	1 fraction
B12	100%	82%	7%				
B13	105%	98%	22%	1.03 fraction	1.1 fraction	0.279 fraction	1 fraction
B14	103%	88%	10%				
B15	108%	91%	9%				
B16	104%	97%	16%	1.06 fraction	1.11 fraction	0.447 fraction	1 fraction
B17	98%	63%	5%				
B18	109%	109%	11%				
B19	116%	107%	9%				
B20	103%	103%	38%	0.866 fraction	0.784 fraction	0.387 fraction	1 fraction
B21	108%	104%	36%	1.12 fraction	1.2 fraction	0.543 fraction	1 fraction
B22	103%	87%	6%				
B23	104%	84%	4%				
